Assay results taken from US20230295329A1 (published 2023).

B1: Hu32a-85.IgG4AA (antibody, V domains shown)
VH: EVQLVQSGAEVKKPGSSVKVSCKASDFTFTDYEIHWVKQAPGHGLEWIGLFDPETGGIVYNQKFKGKATLTADKSTSTAYMEFSSLRSEDTAVYYCTREGYNRDWYFDVWGQGTTVTVSS
VL: DIVMTQTPLSLPVTPGEPASISCRSSQSLVHSTGNTYLEWYLQKPGQSPQLLIYKVSNRFSGVPDRFSGSGSGTDFTLKISRVEAEDVGVYYCFQGSHVPYTFGGGTKVEIKR
notes: Full-length IgG4-AA (S228P, F234A, L235A) antibody with kappa light chain
B2: Hu23-11.IgG4AA (antibody, V domains shown)
VH: EVQLVQSGAEVKKPGSSVKVSCKASGGTFSDYEMHWVRQAPGQGLEWMGLIDPETGGTVYNQKFKDRVTITADKSTSTAYMELSSLRSEDTAVYYCARERFSYYGSTSDWYFDVWGQGTTVTVSS
VL: B1 VL
notes: Full-length IgG4-AA (S228P, F234A, L235A) antibody with kappa light chain; LCDR1 mutant N28T (Kabat)
B3: H005-1 (antibody, V domains shown)
VH: EVQLVESGGGLVQPGGSLRLSCAASGFTFSSYMMSWVRQAPGKGLEWVATISGGGANTYYPDSVKGRFTISRDNAKNSLYLQMNSLRAEDTAVYYCARQLYYFDYWGQGTTVTVSS
VL: DIQMTQSPSSLSASVGDRVTITCLASQTIGTWLTWYQQKPGKAPKLLIYTATSLADGVPSRFSGSGSGTDFTLTISSLQPEDFATYYCQQVYSIPWTFGGGTKVEIKR

biological target: T1, PD-1-His protein (Cat. #10377H08H, Sino Biological) (human, UniProt Q15116 25-167); assay: ELISA, PD-1-His coated, HRP goat anti-human IgG detection
T1 construct: Bought reagent; also called huPD-1-his; hu PD-1-his; not shown: His tag of the bought protein
T1 sequence (Q15116 25-167 limits assumed): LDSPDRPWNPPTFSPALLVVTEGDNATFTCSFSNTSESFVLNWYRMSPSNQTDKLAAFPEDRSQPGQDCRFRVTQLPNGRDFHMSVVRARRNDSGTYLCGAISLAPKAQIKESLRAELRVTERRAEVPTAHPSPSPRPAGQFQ

| OD value MAX | Binder |
| --- | --- |
| 1.26 | B1 |
| 1.46 | B2 |
| 1.21 | B3 |
